Peptide exchange yield data for 39 molecules are collected here from patent US20170173132A1 (IMMATICS BIOTECHNOLOGIES, published 2017).

The experiment deals with T1, HLA-A*02:01 (peptide-receptive MHC class I molecule, heavy chain with β2m light chain) (human).
T1 construct: The UV-sensitive placeholder peptide is cleaved on irradiation and exchanged for the tested peptide
Kind of experiment: UV-ligand exchange, anti-β2m ELISA; grade of peptide exchange yield (≥10% = +; ≥20% = ++; ≥50 = +++; ≥75% = ++++). From the text: Candidate peptides for T cell based therapies according to the present invention were further tested for their MHC binding capacity (affinity). The individual peptide-MHC complexes were produced by UV-ligand exchange, where a UV-sensitive peptide is cleaved upon UV-irradiation, and exchanged with the peptide of interest as analyzed. Only peptide candidates that can effectively bind and stabilize the peptide-receptive MHC molecules prevent dissociation of the MHC complexes. To determine the yield of the exchange reaction, an ELISA was performed based on the detection of the light chain (β2m) of stabilized MHC complexes. The assay was performed as generally described in Rodenko et al. (Rodenko et al., 2006).
96 well MAXISorp plates (NUNC) were coated over night with 2 ug/ml streptavidin in PBS at room temperature, washed 4× and blocked for 1 h at 37° C. in 2% BSA containing blocking buffer. Refolded HLA-A*02:01/MLA-001 monomers served as standards, covering the range of 15-500 ng/ml. Peptide-MHC monomers of the UV-exchange reaction were diluted 100-fold in blocking buffer. Samples were incubated for 1 h at 37° C., washed four times, incubated with 2 ug/ml HRP conjugated anti-β2m for 1 h at 37° C., washed again and detected with TMB solution that is stopped with […]. Absorption was measured at 450 nm. Candidate peptides that show a high exchange yield (preferably higher than 50%, most preferred higher than 75%) are generally preferred for a generation and production of antibodies or fragments thereof, and/or T cell receptors or fragments thereof, as they show sufficient avidity to the MHC molecules and prevent dissociation of the MHC complexes.
Background: An ELISA detects its analyte on a solid surface through an enzyme-linked reagent.

Square brackets hold non-standard residues; d marks the D form. Ends that are not written are not given here. pT = C[C@@H](OP(=O)(O)O)[C@H](N)C(=O)O

TLLGLAVNV [peptide TLLGLAVNV] returned a peptide exchange yield of at least 75%.

FSFPVSVGV [peptide FSFPVSVGV] yielded a peptide exchange yield of 50 to 75%. Under ALNPVIYTV [peptide ALNPVIYTV] stands 20 to 50%; under TIASSIEKA [peptide TIASSIEKA], 20 to 50%; under SLFSVPFFL [peptide SLFSVPFFL], at least 75%. KLLDMELEM [peptide KLLDMELEM] registered a peptide exchange yield of at least 75%. In turn, SLLTEPALV [peptide SLLTEPALV] came in with a peptide exchange yield of 50 to 75%.

Consider ALEA[pT]QLYL [peptide ALEAUQLYL], for which the peptide exchange yield lay within 50 to 75%. As for SLVEGEAVHLA [peptide SLVEGEAVHLA], the peptide exchange yield is 20 to 50%. GLSYIYNTV [peptide GLSYIYNTV] yielded a peptide exchange yield of 20 to 50%. The molecule SMMGLLTNL [peptide SMMGLLTNL] registered a peptide exchange yield of at least 75%. In turn, LLM[pT]VAGLKL [peptide LLMUVAGLKL] came in with a peptide exchange yield of at least 75%. Turning to FLVEHVLTL [peptide FLVEHVLTL], the peptide exchange yield is at least 75%. The molecule FMSKLVPAI [peptide FMSKLVPAI] had a peptide exchange yield of 50 to 75%.

The molecule GLLPTSVSPRV [peptide GLLPTSVSPRV] returned a peptide exchange yield of 20 to 50%. Turning to GLLGFQAEA [peptide GLLGFQAEA], the peptide exchange yield was at least 75%.

On to GLHSLPPEV [peptide GLHSLPPEV], for which the peptide exchange yield is 50 to 75%. Under ALAGSSPQV [peptide ALAGSSPQV] stands 50 to 75%. Under ILTELPPGV [peptide ILTELPPGV] stands 20 to 50%. Regarding ALEEQLHQV [peptide ALEEQLHQV], the peptide exchange yield was 20 to 50%. Consider KLYEGIPVL [peptide KLYEGIPVL], for which the peptide exchange yield lay within 20 to 50%. The molecule GLVQSLTSI [peptide GLVQSLTSI] gave a peptide exchange yield of at least 75%.

FLSSEAANV [peptide FLSSEAANV] had a peptide exchange yield of 20 to 50%. For FIIPTVATA [peptide FIIPTVATA] the value was at least 75%; for SLAEPRVSV [peptide SLAEPRVSV], 50 to 75%. KAFPFYNTV [peptide KAFPFYNTV] yielded a peptide exchange yield of 20 to 50%.

As for SLNDQGYLL [peptide SLNDQGYLL], the peptide exchange yield was in the range of 50 to 75%.

As for GLVATLQSL [peptide GLVATLQSL], the peptide exchange yield was in the range of 50 to 75%.

SLADAVEKV [peptide SLADAVEKV]: the peptide exchange yield fell in the range of 50 to 75%.

Molecule KMPEHISTV [peptide KMPEHISTV] yielded a peptide exchange yield of 50 to 75%. In the case of YILLQSPQL [peptide YILLQSPQL], the peptide exchange yield fell in the range of 50 to 75%. Molecule YIDGLESRV [peptide YIDGLESRV] yielded a peptide exchange yield of 50 to 75%. For SLFPSLVVV [peptide SLFPSLVVV] the value was 50 to 75%. Molecule SLLSEIQAL [peptide SLLSEIQAL] yielded a peptide exchange yield of at least 75%. In turn, KQLELELEV [peptide KQLELELEV] displayed a peptide exchange yield of 50 to 75%. ALTALQNYL [peptide ALTALQNYL] had a peptide exchange yield of 50 to 75%.

SLAWDVPAA [peptide SLAWDVPAA] registered a peptide exchange yield of 50 to 75%. Consider FLDEEVKLI [peptide FLDEEVKLI], for which the peptide exchange yield fell in the range of 50 to 75%. For the molecule ILFDVVVFL [peptide ILFDVVVFL], the peptide exchange yield lay in the range of 20 to 50%.
